The target of this assay is N-protein of the wild-type Cne PRP8 S0 split mini-intein with C1A, maltose-binding protein fused to N-intein (MI^A N) (Cryptococcus neoformans). The assay can be described thus: SPR; Biacore T100; N-proteins (WTNa, ENa) immobilised on a CM5 chip; C-terminal fusion proteins flowed at different concentrations in 10 mM HEPES, 150 mM NaCl, 1 mM EDTA, pH 7.4; KD = kd/ka.

“C-protein of the wild-type Cne PRP8 S0 split mini-intein with N185A, C-intein fused to thioredoxin (I^A CT) (domain or fragment)”: the Ka amounted to 608000 M⁻¹, the Kd was 1.65 µM, the koff was 0.0082 s⁻¹ and the on-rate (kon) worked out at 4990 M⁻¹ s⁻¹.

The values are drawn from article PMC10448054.
